Biological target: S. pneumoniae RecA lacking the first 28 residues (Δ28), purified (S. pneumoniae) (UniProt P0A451)
Test: SEC-MALS; purified Δ28RecA; details in Supplementary Results and Supplementary Figure S5

S. pneumoniae RecA lacking the first 28 residues (Δ28), purified (from UniProt P0A451 29-388) (domain or fragment)
stoichiometry N: 2

Reference: publication PMC4066776
